Test results as given in patent US20220402990.

How the values were obtained:
[1] = target: Activatable cytokine construct IFN-α2b-1204DNIdl-hIgG4
[2] = target: IFN-α2b-1204DNIdl-hIgG4 with five amino acid residues added to the linker
[3] = target: Activatable cytokine construct IFN-α-2b 1490DNI-hIgG4

B1: recombinant human matriptase (MT-SP1) (protein)
chain: VVGGTDADEGEWPWQVSLHALGQGHICGASLISPNWLVSAAHCYIDDRGFRYSDPTQWTAFLGLHDQSQRSAPGVQERRLKRIISHPFFNDFTFDYDIALLELEKPAEYSSMVRPICLPDASHVFPAGKAIWVTGWGHTQYGGTGALILQKGEIRVINQTTCENLLPQQITPRMMCVGFLSGGVDSCQGDSGGPLSSVEADGRIFQAGVVSWGDGCAQRNKPGVYTRLPLFRDWIKENTGV
B1 was tested, and the “protease cleavage, gel electrophoresis” value [1] was “The results suggest that the proteases were effective at cleaving the cleavable moieties in the activatable cytokine constructs”, the “protease cleavage, gel electrophoresis” value [2] was “The results suggest that the proteases were effective at cleaving the cleavable moieties in the activatable cytokine constructs” and the “protease cleavage, gel electrophoresis” value [3] was “The results suggest that the proteases were effective at cleaving the cleavable moieties in the activatable cytokine constructs”.
